# Results published in the RNAGym collection of RNA variant scans (doi:10.7554/elife.90254).
# B1: LINE1-mini (parent)
# chain: GGCAGAGCUCAACACAGCGUGGCAAAGUGGCUGUGGCUAGACUGCC
# Variants of: B1
# Test: self-cleavage, relative activity (ratio to wild type); higher = more cleavage; in vitro, sequencing; the parent is a self-cleaving ribozyme
row,Variant,self-cleavage
1,U20G C42U,0.17
2,A16G A26C,0.84
3,G7U A11C,0.02
4,C10G U28A,0.11
5,G5A G30C,0.12
6,U28C U38G,0.01
7,G7A G36U,0.12
8,A12U U43C,0.14
9,C18U G40A,0.1
10,C18U G40U,0.12
11,G21C U43G,0.02
12,A24G U34G,0.14
13,G21A U28A,1.94
14,G22U,1.38
15,C3U C37G,0.05
16,C15G G21A,0.08
17,G29C G36U,0.04
18,G2C U9A,0.16
19,C3U G5C,0.27
20,C13A C18G,0.12
21,G17C G44A,0.11
22,C37U C46G,0.04
23,G2C A11U,0.03
24,G17U U32G,0.09

row,Variant,self-cleavage
1,C18G G29A,1.38
2,G5A G17C,0.39
3,A24C A26U,0.43
4,C18G G19U,0.56
5,A6G A14G,0.07
6,A11C C15A,0.02
7,A26C U32G,0.13
8,C18A A41C,0.05
9,G2U A25C,0.05
10,G19C A26U,0.37
11,C8G C18G,0.08
12,C3G G21C,0.41
13,C8A G19C,0.1
14,A16C G22U,0.1
15,A39G C42G,0.03
16,A14C G19C,0.03
17,A26C U38A,1.02
18,A4G A26C,0.63
19,G40U A41U,0.37
20,A26U G40A,0.17
21,A12C C42G,0.02
22,A11C C42A,0.02
23,G5U G40U,0.09
24,G36A A39G,0.39

row,Variant,self-cleavage
1,A26C U28C,0.4
2,C8G G27C,0.1
3,U20G U43G,0.02
4,U32A U34A,0.05
5,G1C C13A,0.05
6,G7C A26U,0.15
7,A6G C37G,0.07
8,G5U C42U,0.08
9,U20G A39C,0.13
10,A25C U38G,0.02
11,C8U C15A,0.11
12,A16U C37A,0.11
13,G2A G27U,0.75
14,C37U A41C,0.02
15,G1A U9G,0.22
16,C8A A12G,0.11
17,C42A G44A,0.25
18,A11G G35U,0.03
19,G29A C45G,0.2
20,A16C U20C,0.19
21,A6U C45G,0.3
22,C8U G17C,0.16
23,G19C U32A,0.16
24,A12C C45G,0.07

row,Variant,self-cleavage
1,A26G G44U,0.3
2,G21A U32C,0.48
3,C10G G33U,0.02
4,C3A C15U,0.41
5,C18A U32G,0.04
6,C13A A26U,0.11
7,G5C U32C,0.1
8,A16C A26U,0.05
9,C10G G44C,0.06
10,U20C U34C,0.18
11,C23U A26C,0.64
12,C15U C18A,0.09
13,C3U G33A,0.13
14,C3G A11U,0.03
15,G29C A41U,0.32
16,G30U G33U,0.08
17,G1C U28C,0.02
18,C15A C42A,0.06
19,U32A C37G,0.08
20,A24U U43C,0.18
21,G35A A41C,0.04
22,G2C G36A,0.25
23,G30A C42G,0.05
24,A11U U32A,0.03

row,Variant,self-cleavage
1,G21U C31U,0.3
2,C13A C23A,0.16
3,G2A C3A,1.93
4,A6U C18A,0.52
5,U34C C45U,0.14
6,G27U G36C,0.1
7,G5A C18G,0.09
8,C13G U38G,0.01
9,C13G U38C,0.41
10,G22U U28G,0.83
11,C10G G27C,0.09
12,A11G A26C,0.03
13,U28C G30U,0.7
14,G5A A11C,0.03
15,G1U G44U,0.15
16,A41C C46A,0.05
17,U28G G33A,0.11
18,G17C G40C,0.05
19,U28A C37G,0.04
20,U28G U38C,1.1
21,U34C C37G,0.04
22,C15U G21C,1.81
23,U20A A24C,0.28
24,C3G C31A,0.15

row,Variant,self-cleavage
1,A14C G22A,0.18
2,G1U G36A,0.11
3,C8U A39G,0.05
4,C8G G21U,0.13
5,A6C A39C,0.23
6,G7C C45G,0.11
7,A24G C42U,0.41
8,C3A C37A,0.35
9,G29U G33A,0.1
10,C10A A39G,0.04
11,G27A C46U,2.06
12,C3G C8A,0.52
13,C13U G17A,0.1
14,C37U U43A,0.11
15,A4G G27C,0.24
16,G1U G33A,0.04
17,C8G A41G,0.13
18,A12U G21C,0.21
19,C10G U43A,0.01
20,A16G G33U,0.04
21,A12C G17U,0.02
22,C23G A26C,0.88
23,A26U G33C,0.06
24,A26U U34C,0.18

row,Variant,self-cleavage
1,C3G U20C,0.41
2,G2C C45G,0.61
3,U9A C37A,0.21
4,A12C G35C,0.03
5,C15G C18U,0.04
6,G21U G27U,0.54
7,C10G C45G,0.02
8,A4C A39G,0.9
9,U43A C45U,0.16
10,C13U G35C,0.22
11,U9G C18A,0.07
12,U9A A41U,0.28
13,U20A G29C,0.55
14,A12G C13A,0.07
15,C10U C23A,0.43
16,G22C U38A,0.31
17,A24G G27C,0.9
18,C23U C31G,0.16
19,A4U A26G,0.14
20,A12U G40U,0.17
21,A11C G17C,0.02
22,U34G U43A,0.21
23,C8G A11U,0.03
